{"source": "paper PMC4470572", "about": "(Nature communications, 2014)", "proteins": {"B1": {"name": "DIC1-eGFP-3xFLAG (dynein intermediate chain 1) (natural protein, mouse, UniProt O88485 1-628, looked up)", "chain": "MSDKSDLKAELERKKQRLAQIREEKKRKEEERKKKEADMQQKKEPVQDDSDLDRKRRETEALLQSIGISPEPPLVPTPMSPSSKSVSTPSDAGSQDSGDLGPLTRTLQWDTDPSVLQLQSDSELGRRLHKLGVSKVTQVDFLPREVVSYSKETQTPLATHQSEEDEEDEEMVEPKIGHDSELENQEKKQETKEAPPRELTEEEKQQILHSEEFLIFFDRTIRVIERALAEDSDIFFDYSGRELEEKDGDVQAGANLSFNRQFYDEHWSKHRVVTCMDWSLQYPELMVASYSNNEDAPHEPDGVALVWNMKFKKTTPEYVFHCQSSVMSVCFARFHPNLVVGGTYSGQIVLWDNRSHRRTPVQRTPLSAAAHTHPVYCVNVVGTQNAHNLITVSTDGKMCSWSLDMLSTPQESMELVYNKSKPVAVTGMAFPTGDVNNFVVGSEEGTVYTACRHGSKAGIGEVFEGHQGPVTGINCHMAVGPIDFSHLFVTSSFDWTVKLWTTKHNKPLYSFEDNADYVYDVMWSPVHPALFACVDGMGRLDLWNLNSDTEVPTASVAIEGASALNRVRWAQGGKEVAVGDSEGRIWIYDVGELAVPHNDEWTRFARTLVEIRANRADSEEEGAVELAA"}}, "biological_target": "the molecule itself", "assay": "single-molecule photobleaching step analysis"}
{"protein": "B1", "values": [{"measurement": "stoichiometry N", "value": 2}]}
